These results are taken from IntAct's records for PubMed 29039417.

First the molecules themselves.
B1: Protein PTHB1 (Homo sapiens), Q3SYG4 (parent)
chain: MSLFKARDWWSTILGDKEEFDQGCLCLANVDNSGNGQDKIIVGSFMGYLRIFSPHPAKTGDGAQAEDLLLEVDLRDPVLQVEVGKFVSGTEMLHLAVLHSRKLCVYSVSGTLGNVEHGNQCQMKLMYEHNLQRTACNMTYGSFGGVKGRDLICIQSMDGMLMVFEQESYAFGRFLPGFLLPGPLAYSSRTDSFLTVSSCQQVESYKYQVLAFATDADKRQETEQQKLGSGKRLVVDWTLNIGEQALDICIVSFNQSASSVFVLGERNFFCLKDNGQIRFMKKLDWSPSCFLPYCSVSEGTINTLIGNHNNMLHIYQDVTLKWATQLPHIPVAVRVGCLHDLKGVIVTLSDDGHLQCSYLGTDPSLFQAPNVQSRELNYDELDVEMKELQKIIKDVNKSQGVWPMTEREDDLNVSVVVSPNFDSVSQATDVEVGTDLVPSVTVKVTLQNRVILQKAKLSVYVQPPLELTCDQFTFEFMTPDLTRTVSFSVYLKRSYTPSELEGNAVVSYSRPTDRNPDGIPRVIQCKFRLPLKLICLPGQPSKTASHKITIDTNKSPVSLLSLFPGFASQSDDDQVNVMGFHFLGGARITVLASKTSQRYRIQSEQFEDLWLITNELILRLQEYFEKQGVKDFACSFSGSIPLQEYFELIDHHFELRINGEKLEELLSERAVQFRAIQRRLLARFKDKTPAPLQHLDTLLDGTYKQVIALADAVEENQGNLFQSFTRLKSATHLVILLIALWQKLSADQVAILEAAFLPLQEDTQELGWEETVDAAISHLLKTCLSKSSKEQALNLNSQLNIPKDTSQLKKHITLLCDRLSKGGRLCLSTDAAAPQTMVMPGGCTTIPESDLEERSVEQDSTELFTNHRHLTAETPRPEVSPLQGVSE
partner: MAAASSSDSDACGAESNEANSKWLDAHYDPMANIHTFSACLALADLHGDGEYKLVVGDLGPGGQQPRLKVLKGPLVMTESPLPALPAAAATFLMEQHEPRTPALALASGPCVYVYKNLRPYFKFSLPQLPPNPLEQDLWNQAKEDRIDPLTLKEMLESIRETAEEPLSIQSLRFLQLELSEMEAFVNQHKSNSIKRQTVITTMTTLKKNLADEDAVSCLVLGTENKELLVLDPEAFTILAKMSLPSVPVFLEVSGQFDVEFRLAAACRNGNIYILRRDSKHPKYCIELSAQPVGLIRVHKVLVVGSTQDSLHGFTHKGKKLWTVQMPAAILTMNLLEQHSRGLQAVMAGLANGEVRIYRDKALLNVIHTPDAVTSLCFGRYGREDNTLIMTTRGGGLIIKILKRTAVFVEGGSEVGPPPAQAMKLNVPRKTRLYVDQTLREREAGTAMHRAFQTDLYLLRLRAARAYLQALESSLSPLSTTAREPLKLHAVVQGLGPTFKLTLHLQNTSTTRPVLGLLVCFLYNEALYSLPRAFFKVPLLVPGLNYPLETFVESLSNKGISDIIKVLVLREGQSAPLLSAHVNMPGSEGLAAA

Variants of B1 are the subject of this assay. Conditions: with bbs1_human BBS1, Q8NFJ9.
Turning to D429E, the “effect of a mutation on the interaction” value is given as “with no effect”.
With T552A, the “effect of a mutation on the interaction” value was “with no effect”.
The value for F527K was “with no effect”.
On to I735E, for which the “effect of a mutation on the interaction” value was “with no effect”.
In the case of I735K it was “disrupting interaction strength”.
In the case of F474A it was “with no effect”; in that of F474E, “with no effect”; in that of R679A, “with no effect”.
As to S639K, the “effect of a mutation on the interaction” value was “with no effect”.
The value for L692K was “with no effect”; that for I534K was “with no effect”; that for K743E was “with no effect”.
In the case of P877E it was “with no effect”.
Take P877K: the “effect of a mutation on the interaction” value was “with no effect”.
Take D572K: the “effect of a mutation on the interaction” value is given as “with no effect”.
Take S558K: the “effect of a mutation on the interaction” value was “with no effect”.
Take V706A: the “effect of a mutation on the interaction” value was “with no effect”.
For the variant L665K, the “effect of a mutation on the interaction” value was “with no effect”.
In the case of Q621A it was “with no effect”; in that of V885A, “with no effect”.
The value for V885E was “with no effect”.
The value for T697A was “with no effect”; that for T697E was “with no effect”; that for Q627K was “with no effect”.
For E644K, the “effect of a mutation on the interaction” value is recorded as “with no effect”.
Take E644A: the “effect of a mutation on the interaction” value is reported as “with no effect”.
In the case of A586E it was “with no effect”; in that of D571K, “with no effect”.
The value for L559A was “with no effect”; that for N503A was “with no effect”.
In the case of V440E, the “effect of a mutation on the interaction” value is “with no effect”.
The value for I548A was “with no effect”; that for S788K was “with no effect”; that for L411K was “with no effect”.
Take L780A: the “effect of a mutation on the interaction” value was “with no effect”.
As to L780K, the “effect of a mutation on the interaction” value is recorded as “with no effect”.
In the case of L452K it was “with no effect”; in that of L452A, “with no effect”.
The value for Q574A was “with no effect”.
For M837E, the “effect of a mutation on the interaction” value is on record as “with no effect”.
The value for M837S was “disrupting interaction strength”; that for T763A was “with no effect”; that for M839A was “with no effect”.
In the case of H694K it was “with no effect”; in that of E625A, “with no effect”.
In the case of T473A it was “with no effect”; in that of A633E, “with no effect”; in that of T845K, “with no effect”.
As to F472K, the “effect of a mutation on the interaction” value was “with no effect”.
In the case of S568K it was “with no effect”.
In the case of V671A it was “with no effect”.
C826K: the “effect of a mutation on the interaction” value is reported as “with no effect”.
In the case of L655E it was “with no effect”; in that of N412K, “with no effect”; in that of N412A, “with no effect”.
In the case of L618A it was “with no effect”.
The value for L436K was “with no effect”; that for T428A was “with no effect”; that for S486A was “with no effect”.
For A832E, the “effect of a mutation on the interaction” value is “with no effect”.
The value for D700K was “with no effect”.
The value for L560E was “with no effect”.
In the case of D631A, the “effect of a mutation on the interaction” value is reported as “with no effect”.
As to Q705K, the “effect of a mutation on the interaction” value was “with no effect”.
As to E466K, the “effect of a mutation on the interaction” value is listed as “with no effect”.
The value for L699E was “with no effect”; that for I657A was “with no effect”.
In the case of E615K, the “effect of a mutation on the interaction” value is reported as “with no effect”.
In the case of A710K it was “with no effect”; in that of A710E, “with no effect”; in that of S785K, “with no effect”.
The value for Q453K was “with no effect”.
The value for D817N was “disrupting interaction strength”; that for D817K was “with no effect”.
Consider L740A, for which the “effect of a mutation on the interaction” value is on record as “with no effect”.
In the case of L662K, the “effect of a mutation on the interaction” value is recorded as “with no effect”.
In the case of P840K it was “disrupting interaction strength”.
In the case of P840A it was “with no effect”.
In the case of Q748E it was “with no effect”; in that of F487K, “with no effect”.
Turning to V749K, the “effect of a mutation on the interaction” value is “with no effect”.
Take V749E: the “effect of a mutation on the interaction” value is given as “disrupting interaction strength”.
With G767K, the “effect of a mutation on the interaction” value was “with no effect”.
The value for A750E was “with no effect”.
The value for L536A was “with no effect”.
In the case of T725A it was “with no effect”; in that of F636A, “with no effect”; in that of F673K, “with no effect”.
Turning to R619E, the “effect of a mutation on the interaction” value is on record as “with no effect”.
In the case of R619C it was “disrupting interaction strength”.
The value for K803A was “with no effect”; that for N866A was “with no effect”; that for D850A was “with no effect”.
Consider L695M, for which the “effect of a mutation on the interaction” value is listed as “disrupting interaction strength”.
In the case of E852K it was “with no effect”; in that of A774E, “with no effect”.
In the case of I676K it was “with no effect”; in that of L500E, “with no effect”; in that of A682K, “with no effect”.
The value for K821A was “with no effect”.
As to E770K, the “effect of a mutation on the interaction” value was “disrupting interaction strength”.
Regarding G842E, the “effect of a mutation on the interaction” value is on record as “with no effect”.
The value for G842A was “with no effect”; that for L799A was “with no effect”; that for P438A was “with no effect”.
The value for P834E was “with no effect”; that for Q791A was “with no effect”.
In the case of N515A it was “with no effect”; in that of N515E, “with no effect”.
Regarding V432A, the “effect of a mutation on the interaction” value is “with no effect”.
Turning to V432E, the “effect of a mutation on the interaction” value was “disrupting interaction strength”.
The value for A833E was “with no effect”.
As for R674P, the “effect of a mutation on the interaction” value was “disrupting interaction strength”.
In the case of L870E it was “with no effect”.
The value for T512E was “with no effect”; that for T482E was “with no effect”.
Take D650E: the “effect of a mutation on the interaction” value is “with no effect”.
The value for D650A was “with no effect”; that for T595A was “with no effect”; that for Q602K was “with no effect”.
Take H732A: the “effect of a mutation on the interaction” value is reported as “with no effect”.
The value for D696V was “disrupting interaction strength”; that for L681K was “with no effect”; that for V437A was “with no effect”.
The value for L784E was “with no effect”; that for I617A was “with no effect”; that for R656K was “with no effect”.
In the case of L795A it was “with no effect”; in that of L795K, “with no effect”.
For the variant G585K, the “effect of a mutation on the interaction” value is “with no effect”.
In the case of G585A it was “with no effect”; in that of E604V, “disrupting interaction strength”.
For the variant S423E, the “effect of a mutation on the interaction” value is “with no effect”.
The value for S423A was “with no effect”; that for L825K was “with no effect”; that for T731E was “with no effect”.
In the case of Q569E it was “with no effect”.
In the case of R854A it was “with no effect”.
As to G884E, the “effect of a mutation on the interaction” value is “with no effect”.
The value for F421A was “with no effect”; that for R528A was “with no effect”.
Regarding E878A, the “effect of a mutation on the interaction” value is recorded as “with no effect”.
The value for I738A was “disrupting interaction strength”; that for Y645A was “with no effect”; that for D747A was “with no effect”.
The value for F756E was “with no effect”.
The value for G823A was “with no effect”; that for I588K was “with no effect”.
For A670K, the “effect of a mutation on the interaction” value was “with no effect”.
The value for T813A was “with no effect”.
G538K: the “effect of a mutation on the interaction” value is given as “with no effect”.
G584E: the “effect of a mutation on the interaction” value is on record as “with no effect”.
Regarding S596K, the “effect of a mutation on the interaction” value is listed as “with no effect”.
The value for E848A was “with no effect”; that for Q835E was “with no effect”; that for S494K was “with no effect”.
The value for Y508E was “with no effect”.
Consider F724E, for which the “effect of a mutation on the interaction” value was “with no effect”.
The value for P881K was “with no effect”.
The value for F624E was “with no effect”; that for S635K was “with no effect”; that for H811A was “with no effect”.
The value for R514A was “with no effect”; that for V506I was “disrupting interaction strength”.
Consider K454A, for which the “effect of a mutation on the interaction” value is on record as “with no effect”.
As to L851E, the “effect of a mutation on the interaction” value was “with no effect”.
The value for Q605A was “with no effect”; that for L727K was “with no effect”; that for L727E was “with no effect”.
In the case of L827E, the “effect of a mutation on the interaction” value is “with no effect”.
Take G718A: the “effect of a mutation on the interaction” value is listed as “with no effect”.
The value for I812E was “with no effect”; that for N614K was “with no effect”; that for N614A was “with no effect”.
In the case of A675K it was “with no effect”; in that of Q883K, “with no effect”; in that of R510A, “with no effect”.
In the case of D409E it was “with no effect”.
With F566E, the “effect of a mutation on the interaction” value is recorded as “with no effect”.
The value for S439A was “with no effect”.
In the case of H546A it was “with no effect”.
